Laboratory results published in patent publication US20100248328A1, “HYPERACTIVE VARIANTS OF 5-AMINOLEVULINATE SYNTHASE AND METHODS OF USE” (UNIVERSITY OF SOUTH FLORIDA, priority 2005, published 2010).
Like-named read-outs stand apart in the source and are kept apart here.

Tests used:
[1] = test system: H1299 lung carcinoma cells; conditions: added to cells infected with ALAS construct; cited from earlier work
[2] = Pre-steady-state single turnover reactions, rapid scanning stopped-flow (quinonoid intermediate, 510 nm); type: biochemical; conditions: 20° C.
Protocol: FIGS. 5(A) through (D) are graphs showing the single turnover reactions of isolated hyperactive ALAS variants. The pre-steady state kinetic parameters were determined under single turnover conditions (60 μM enzyme-glycine complex, 10 μM succinyl-CoA) at 20° C. by monitoring absorbance changes at 510 nm. The variant catalyzed reactions A4, D8, G7, A8, (panels A-D, respectively) resemble that of the wild-type enzyme in that quinonoid lifetime is observed as a single step of quinonoid intermediate formation and 2-step process of decay (Hunter, & Ferreira. Pre-steady-state reaction of 5-aminolevulinate synthase. Evidence for a rate-determining product release J Biol. Chem. 1999 Apr. 30; 274(18):12222-8).
FIGS. 6(A) through (D) are graphs showing the single turnover reactions of isolated hyperactive ALAS variants. The pre-steady state kinetic parameters were determined under single turnover conditions (60 μM enzyme-glycine complex, 10 μM succinyl-CoA) at 20° C. by monitoring absorbance changes at 510 nm. […]
FIG. 7 is a graph showing the SS2 variant catalyzed reaction. Equilibrium and pre-steady state kinetic parameters for the SS2 variant were determined at 20° C. by monitoring changes in absorbance at 510 nm associated with quinonoid intermediate lifetime, under single-turnover conditions.
ALAS steady-state activity of the ALAS active site loop variants was determined at 20° C. using a continuous spectrophotometric assay as described previously for wild-type ALAS (Hunter & Ferreira. A continuous spectrophotometric assay for 5-aminolevulinate synthase that utilizes substrate cycling. Anal Biochem. 1995 Apr. 10; 226(2):221-4). […] Single turnover data were evaluated using either a two- or three-kinetic-step mechanism as described by Equations 1 and 2, respectively (Hunter, & Ferreira. Pre-steady-state reaction of 5-aminolevulinate synthase. Evidence for a rate-determining product release J Biol Chem. 1999 Apr. 30; 274(18):12222-8). […]

[3] = ALAS steady-state activity, continuous spectrophotometric assay; type: biochemical; conditions: 20° C.
Protocol: ALAS steady-state activity of the ALAS active site loop variants was determined at 20° C. using a continuous spectrophotometric assay as described previously for wild-type ALAS (Hunter & Ferreira. A continuous spectrophotometric assay for 5-aminolevulinate synthase that utilizes substrate cycling. Anal Biochem. 1995 Apr. 10; 226(2):221-4). Rapid scanning stopped-flow measurements were performed using a model RSM-100 stopped-flow spectrophotometer (OLIS, Inc.). This instrument has a dead-time of approximately 2-ms and an observation chamber path length of 4 mm Spectral scans covering a wavelength range of 300-570 nm were collected at a rate of 1000 scans/s and then averaged to 62 scans/s in order to reduce the time course data files to an appropriate size for global fit analyses. The temperature of the syringes and the stopped-flow cell compartment was maintained at 20° C. by an external water bath. Pre-steady-state kinetic reactions of the variant enzymes were examined under single turnover conditions, using final concentrations of 60 μM enzyme, 120 mM glycine and 10 μM succinyl-CoA in 100 mM HEPES, pH 7.5 and 10% (v/v) glycerol as previously described (Hunter, & Ferreira. Pre-steady-state reaction of 5-aminolevulinate synthase. Evidence for a rate-determining product release J Biol Chem. 1999 Apr. 30; 274(18):12222-8). Single turnover data were evaluated using either a two- or three-kinetic-step mechanism as described by Equations 1 and 2, respectively (Hunter, & Ferreira. Pre-steady-state reaction of 5-aminolevulinate synthase. Evidence for a rate-determining product release J Biol Chem. 1999 Apr. 30; 274(18):12222-8).
(§1) The ALAS steady-state kinetic parameters of wild-type ALAS and the SS2 variant activity assays were also determined at 15, 25, and 35° C.

[4] = 37 C, pH 7.2; cited from earlier work
[5] = Temperature dependence of steady-state kinetics, Arrhenius plot, thermodynamic activation parameters; type: biochemical
Protocol: FIG. 9 is a graph showing the thermal dependence of the SS2 variant-catalyzed reaction. kcat values were calculated by performing steady-state kinetics at different temperatures. (A) an Arrhenius plot depicting the difference between the wild-type ([…]) and the SS2 variant-catalyzed (◯) reactions at 288, 293, 298, 303 and 308K. Error bars are plotted over and partially obscured by the data points.
as §1
The natural log of the calculated values for the turnover numbers (lnkcat) were plotted vs. the inverse of temperature and the data were fit to the Arrhenius equation.
where Ea is the activation energy, R is the universal gas constant, T is the absolute temperature, and A is the frequency factor. The determined activation energies were then used to calculate the thermodynamic activation parameters, ΔH, ΔG and ΔS, as previously described (Hunter, et al. Transient kinetic studies support refinements to the chemical and kinetic mechanisms of aminolevulinate synthase. J Biol. Chem. 2007 Aug. 10; 282(32):23025-35. Epub 2007 May 7). The turnover numbers for each enzyme were used to construct an Arrhenius plot, from which the thermodynamic activation parameters were derived seen in Table 4.

Row | Molecule | Potentiation of photosensitivity [1] | Qf, rate for quinonoid intermediate formation ([2]; 60 μM enzyme, 120 mM glycine, 10 μM succinyl-CoA) [s⁻¹] | Qd1, rate for first step of quinonoid intermediate decay [2] [s⁻¹] | Qd2, rate for second step of quinonoid intermediate decay [2] [s⁻¹] | Kcat [3] [s⁻¹] | Km ([3]; read-out: Km^Gly) [mM] | Km ([3]; read-out: Km^SCoA) [mM] | Catalytic efficiency for the substrate glycine [4] [mM⁻¹ min⁻¹] | ΔG^‡ (30° C.) ([5]; 30° C.) [kcal/mol] | ΔH^‡ (30° C.) ([5]; 30° C.) [kcal/mol] | ΔS^‡ (30° C.) ([5]; 30° C.) [cal/mol · K] | Slope/(K) of Arrhenius plot ([5]; 288-308 K) [K] | Ea, activation energy ([5]; 288-308 K, listed as WTALAS) [kcal/mol] | Q10 for the catalytic rate constant ([5]; steady-state temperature dependence)
1 | CC(=O)N(O)CCCCCNC(=O)CCC(=O)N(O)CCCCCNC(=O)CCC(=O)N(O)CCCCCN [desferrioxamine] | two-fold |  |  |  |  |  |  |  |  |  |  |  |  | 
2 | WT: wild-type murine erythroid 5-aminolevulinate synthase (mALAS-2) (protein, UniProt P08680 50-587, looked up) 5-aminolevulinate synthase, …: QIHLKATKAGGDSPSWAKSHCPFMLSELQDRKSKIVQRAAPEVQEDVKTFKTDLLSTMDSTTRSHSFPSFQEPEQTEGAVPHLIQNNMTGSQAFGYDQFFRDKIMEKKQDHTYRVFKTVNRWANAYPFAQHFSEASMASKDVSVWCSNDYLGISRHPRVLQAIEETLKNHGAGAGGTRNISGTSKFHVELEQELAELHQKDSALLFSSCFVANDSTLFTLAKLLPGCEIYSDAGNHASMIQGIRNSGAAKFVFRHNDPGHLKKLLEKSDPKTPKIVAFETVHSMDGAICPLEELCDVAHQYGALTFVDEVHAVGLYGARGAGIGERDGIMHKLDIISGTLGKAFGCVGGYIASTRDLVDMVRSYAAGFIFTTSLPPMVLSGALESVRLLKGEEGQALRRAHQRNVKHMRQLLMDRGFPVIPCPSHIIPIRVGNAALNSKICDLLLSKHSIYVQAINYPTVPRGEELLRLAPSPHHSPQMMENFVEKLLLAWTEVGLPLQDVSVAACNFCHRPVHFELMSEWERSYFGNMGPQYVTTYA |  | 0.8 | 0.53 | 0.01 | 0.02 ± 0.01 | 14 ± 2 | 0.011 ± 0.001 | 3.4 | 19 | 48 | −95 | −24000 | 48 | seven
